Assay results: US20220119534A1 (DRAGONFLY THERAPEUTICS, published 2022)
Positions count from the first letter of the chain named. Where “and” joins values, the source holds several entries; their conditions need not be identical. Equal values may be shown once. Values belong to the binder of their own block, whether it stands above or below them.

Experiments:
[1] = molecular target: T1, human CLEC12A expressed on cells (human, UniProt Q5QGZ9 1-265); assay: flow cytometry on HL-60 cells, fold over background
T1 construct: Transduced isogenic cells or endogenous expression on AML cells; also called RMA-hCLEC12A; Ba/F3-hCLEC12A
T1 sequence: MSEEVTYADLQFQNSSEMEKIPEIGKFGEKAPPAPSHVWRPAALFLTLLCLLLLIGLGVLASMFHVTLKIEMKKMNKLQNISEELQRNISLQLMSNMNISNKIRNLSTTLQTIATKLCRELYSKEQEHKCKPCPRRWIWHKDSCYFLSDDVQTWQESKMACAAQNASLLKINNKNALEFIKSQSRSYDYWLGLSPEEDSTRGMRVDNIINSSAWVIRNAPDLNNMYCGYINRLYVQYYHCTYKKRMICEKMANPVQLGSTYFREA
Procedure: (§1) The cells were then incubated with a fluorophore conjugated anti-human IgG secondary antibody and were analyzed by flow cytometry. The mean fluorescence intensity (MFI) values were normalized to secondary antibody only controls to obtain fold over background (FOB) values.
(§2) 100,000 cells were seeded per well into a 96-well plate for FACS staining. Cells were washed with PBS. Cells were incubated in a 1:2000 dilution of live/dead dye in PBS for 15 minutes, then washed with FACS buffer. TriNKETs or mAbs were diluted into FACS buffer, and 50 μl containing diluted TriNKET or mAb was added to cells. Cells were incubated on ice for 20 minutes. After the incubation, cells were washed with FACS buffer. Anti-human IgG-Fc secondary antibody was diluted into FACS buffer, and 50 μl was added per well for detection of the bound TriNKETs or mAbs. Cells were incubated for 20 minutes on ice, then washed with FACS buffer. 50 μl of fixation buffer was added to each well, and cells were incubated for 10 minutes at room temperature. Cells were washed with FACS buffer and resuspended in FACS buffer for analysis with BD FACS Celesta SN #H66034400085, or BD FACS Celesta SN #H66034400160. Cells of interest were identified using FSC vs. SSC plot, and an appropriately shaped gate was drawn around the cells. Within the gated cells, doublet cells were removed by viewing FSC-H vs FSC-A plot. Within the single cell population, live cells were gated. Within the live gate, the mean fluorescence intensity (MFI) of each sample and the secondary-only control was calculated. Fold-over-background (FOB) was calculated as the ratio of test article MFI over secondary-only background MFI. Data were fit to a four-parameter non-linear regression curve using GraphPad Prism 7.0.

[2] = molecular target: T1, human CLEC12A expressed on cells; assay: flow cytometry on Ba/F3-hCLEC12A cells, fold over background
Procedure: as §1, §2

[3] = molecular target: T2, recombinant human CLEC12A-His (human, UniProt Q5QGZ9 65-265); assay: SPR 37C
T2 construct: also called hCLEC12A-His; hCLEC12A
T2 sequence: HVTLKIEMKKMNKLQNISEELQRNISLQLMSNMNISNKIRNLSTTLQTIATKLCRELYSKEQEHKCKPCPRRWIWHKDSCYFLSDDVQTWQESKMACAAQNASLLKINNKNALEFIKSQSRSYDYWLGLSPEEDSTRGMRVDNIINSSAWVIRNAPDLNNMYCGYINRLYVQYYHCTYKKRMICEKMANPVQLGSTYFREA

[4] = molecular target: T1, human CLEC12A expressed on cells; assay: flow cytometry, hCLEC12A+ Ba/F3
[5] = molecular target: T1, human CLEC12A expressed on cells; assay: flow cytometry, HL60
[6] = molecular target: T2, recombinant human CLEC12A-His; assay: SPR 37C, average
[7] = molecular target: T3, human NKG2D on effector cells (human, UniProt P26718 1-216); assay: cell-based or functional assay
T3 sequence (looked up): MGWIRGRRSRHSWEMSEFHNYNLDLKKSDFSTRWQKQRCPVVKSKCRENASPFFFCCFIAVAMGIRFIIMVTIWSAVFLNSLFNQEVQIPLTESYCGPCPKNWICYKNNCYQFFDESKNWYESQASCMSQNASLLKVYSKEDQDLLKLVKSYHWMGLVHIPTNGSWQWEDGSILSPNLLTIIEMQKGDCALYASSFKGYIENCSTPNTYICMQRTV

[8] = molecular target: T1, human CLEC12A expressed on cells; assay: flow cytometry on PL-21 cells, fold over background
Procedure: as §1
100,000 cells were seeded per well into a 96-well plate for FACS staining. Cells were washed with PBS. Cells were incubated in a 1:2000 dilution of live/dead dye in PBS for 15 minutes, then washed with FACS buffer. TriNKETs or mAbs were diluted into FACS buffer, and 50 μl containing diluted TriNKET or mAb was added to cells. Cells were incubated on ice for 20 minutes. After the incubation, cells were washed with FACS buffer. Anti-human IgG-Fc secondary antibody was diluted into FACS buffer, and 50 μl was added per well for detection of the bound TriNKETs or mAbs. Cells were incubated for 20 minutes on ice, then washed with FACS buffer. 50 μl of fixation buffer was added to each well, and cells were incubated for 10 minutes at room temperature. […] Within the live gate, the mean fluorescence intensity (MFI) of each sample and the secondary-only control was calculated. Fold-over-background (FOB) was calculated as the ratio of test article MFI over secondary-only background MFI. […]

B2: AB0010 (other)
chain: DIQMTQSPSSVSASVGDRVTITCRASQGISSWLAWYQQKPGKAPKLLIYAASSLQSGVPSRFSGSGSGTDFTLTISSLQPEDFATYYCQQGVSFPRTFGGGTKVEIKGGGGSGGGGSGGGGSGGGGSEVQLVESGGGLVKPGGSLRLSCAASGFTFSSYSMNWVRQAPGKGLEWVSSISSSSSYIYYADSVKGRFTISRDNAKNSLYLQMNSLRAEDTAVYYCARGAPIGAAAGWFDPWGQGTLVTVSSGSDKTHTCPPCPAPELLGGPSVFLFPPKPKDTLMISRTPEVTCVVVDVSHEDPEVKFNWYVDGVEVHNAKTKPREEQYNSTYRVVSVLTVLHQDWLNGKEYKCKVSNKALPAPIEKTISKAKGQPREPRVYTLPPCRDELTKNQVSLTCLVKGFYPSDIAVEWESNGQPENNYKTTPPVLVSDGSFTLYSKLTVDKSRWQQGNVFSCSVMHEALHNHYTQKSLSLSPG
heavy: QLQLQESGPGLVKPSETLSLTCTVSGFSLTNYGLHWIRQPPGKGLEWIGVIWSGGKTDYNPSLKSRVTISKDTSKNQFSLKLSSVQAADTAVYYCAKYDYDDSLDYWGQGTLVTVSSASTKGPSVFPLAPSSKSTSGGTAALGCLVKDYFPEPVTVSWNSGALTSGVHTFPAVLQSSGLYSLSSVVTVPSSSLGTQTYICNVNHKPSNTKVDKKVEPKSCDKTHTCPPCPAPELLGGPSVFLFPPKPKDTLMISRTPEVTCVVVDVSHEDPEVKFNWYVDGVEVHNAKTKPREEQYNSTYRVVSVLTVLHQDWLNGKEYKCKVSNKALPAPIEKTISKAKGQPREPQVCTLPPSRDELTENQVSLTCLVKGFYPSDIAVEWESNGQPENNYKTTPPVLDSDGSFFLYSWLTVDKSRWQQGNVFSCSVMHEALHNHYTQKSLSLSPG
light: DIQMTQSPSSLSASVGDRVTITCHASQNINFWLSWYQQKPGKAPKLLIYEASNLHTGVPSRFSGSGSGTRFTLTISSLQPEDIATYYCQQSHSYPLTFGGGTKLEIKRTVAAPSVFIFPPSDEQLKSGTASVVCLLNNFYPREAKVQWKVDNALQSGNSQESVTEQDSKDSTYSLSSTLTLSKADYEKHKVYACEVTHQGLSSPVTKSFNRGEC
notes: NKG2D scFv-Fc, CLEC12A Fab-Fc
Kd [3]: 0.71 nM and 0.77 nM | koff [3]: 0.000508 s⁻¹ and 0.000541 s⁻¹ | kon [3]: 715000 M⁻¹ s⁻¹ and 704000 M⁻¹ s⁻¹ | EC50 [4]: 6.13 nM | EC50 [5]: 4.2 nM | Kd [6]: 0.74 nM | koff [6]: 0.000525 s⁻¹ | kon [6]: 710000 M⁻¹ s⁻¹

B3: AB0237-Dead-2D (other)
chain: QLQLQESGPGLVKPSETLSLTCTVSGFSLTNYGLHWIRQPPGKCLEWIGVIWSGGKTDYNPSLKSRVTISKDTSKNQFSLKLSSVQAADTAVYYCAKYDYDDSLDYWGQGTLVTVSSGGGGSGGGGSGGGGSGGGGSDIQMTQSPSSLSASVGDRVTITCHASQNINFWLSWYQQKPGKAPKLLIYEASNLHTGVPSRFSGSGSGTRFTLTISSLQPEDIATYYCQQSHSYPLTFGCGTKLEIKGSDKTHTCPPCPAPELLGGPSVFLFPPKPKDTLMISRTPEVTCVVVDVSHEDPEVKFNWYVDGVEVHNAKTKPREEQYNSTYRVVSVLTVLHQDWLNGKEYKCKVSNKALPAPIEKTISKAKGQPREPRVYTLPPCRDELTKNQVSLTCLVKGFYPSDIAVEWESNGQPENNYKTTPPVLVSDGSFTLYSKLTVDKSRWQQGNVFSCSVMHEALHNHYTQKSLSLSPG
heavy: EVQLVESGGGLVKPGGSLRLSCAASGFTFSSYSMNWVRQAPGKGLEWVSSISSSSSYIYYADSVKGRFTISRDNAKNSLYLQMNSLRAEDTAVYYCARGAPIGAAAGWFDPWGQGTLVTVSSASTKGPSVFPLAPSSKSTSGGTAALGCLVKDYFPEPVTVSWNSGALTSGVHTFPAVLQSSGLYSLSSVVTVPSSSLGTQTYICNVNHKPSNTKVDKKVEPKSCDKTHTCPPCPAPELLGGPSVFLFPPKPKDTLMISRTPEVTCVVVDVSHEDPEVKFNWYVDGVEVHNAKTKPREEQYNSTYRVVSVLTVLHQDWLNGKEYKCKVSNKALPAPIEKTISKAKGQPREPQVCTLPPSRDELTENQVSLTCLVKGFYPSDIAVEWESNGQPENNYKTTPPVLDSDGSFFLYSWLTVDKSRWQQGNVFSCSVMHEALHNHYTQKSLSLSPG
light: DIQMTQSPSTLSASVGDRVTITCRASNSISSWLAWYQQKPGKAPKLLIYEASSTKSGVPSRFSGSGSGTEFTLTISSLQPDDFATYYCQQYDDLPTFGGGTKVEIKRTVAAPSVFIFPPSDEQLKSGTASVVCLLNNFYPREAKVQWKVDNALQSGNSQESVTEQDSKDSTYSLSSTLTLSKADYEKHKVYACEVTHQGLSSPVTKSFNRGEC
EC50 nM, KHYG-1-CD16aV-mediated lysis of HL-60 [7]: 2.5 nM

B4: AB0300 (other, name in EU numbering)
chain: B3 chain with L260A, L261A, P355G
heavy: B3 heavy with L239A, L240A, P334G
light: DIQMTQSPSSVSASVGDRVTITCRASQGISSWLAWYQQKPGKAPKLLIYAASSLQSGVPSRFSGSGSGTDFTLTISSLQPEDFATYYCQQGVSFPRTFGGGTKVEIKRTVAAPSVFIFPPSDEQLKSGTASVVCLLNNFYPREAKVQWKVDNALQSGNSQESVTEQDSKDSTYSLSSTLTLSKADYEKHKVYACEVTHQGLSSPVTKSFNRGEC
notes: AB0237 with LALAPG in both Fc chains
EC50 (read off the curve) [8]: ~2 nM

The next lines start with the values.

EC50 (read off the curve) [1]: ~0.1 nM | EC50 (read off the curve) [2]: ~0.6 nM
B1: AB0305 (antibody, IgG1, V domains shown)
VH: QLQLQESGPGLVKPSETLSLTCTVSGFSLTNYGLHWIRQPPGKGLEWIGVIWVGGATDYNPSLKSRVTISVDTSKNQFSLKLSSVQAADTAVYYCAKGDYGDTLDYWGQGTLVTVSS
VL: DIQMTQSPSSLSASVGDRVTITCHASQNINFWLSWYQQKPGKAPKLLIYEASNLHTGVPSRFSGSGSGTDFTLTISSLQPEDFATYYCQQSHSYPLTFGSGTKLEIK
notes: hIgG1 mAb; also called Humanized 1739 anti-CLEC12A mAb; parental mAb of AB0089

EC50 (read off the curve) [1]: ~0.5 nM | EC50 (read off the curve) [2]: ~0.8 nM
B5: AB0306 (antibody, IgG1, V domains shown)
VH: EVQLVESGGGVVQPGGSLRLSCAASGFTFNAFGMHWVRQAPGKGLEWVAFISSGSTSIYYANTVKGRFTISRDNSKNTLYLQMNSLRAEDTAVYYCARDGYPTGGAMDYWGQGTSVTVSS
VL: DIQMTQSPSSLSASVGDRVTITCKASQDIYNYLSWFQQKPGKAPKPLIYRANILVSGVPSRFSGSGSGQDYTFTISSLQPEDIATYYCLQFDAFPFTFGSGTKLEIK
notes: hIgG1 mAb; also called Humanized 1797 anti-CLEC12A mAb; parental mAb of AB0192
